Positions count from the first letter of the chain named.

B1: antibody 3091 (antibody, V domains shown)
VH: QMQLVQSGPEVKKPGTSVKVSCKASGFTFSSSAVQWVRQARGQGLEWIGWIVVGSGNANYAQKLQERVSITRDMSTSTAYMELSSLRPEDTAVYYCAAPHCSRTICHDGFDMWGQGTMVTVSS
VL: EIVLTQSPGTLSLSPGERATLSCRASQSVRSSYLAWYQQKPGQAPRLLMFVASSRATGIPDRFSGSGSGTDFTLTISRLEPEDFAVYYCQQYDTSPWTFGQGTKVEIK
B2: antibody 4042 (antibody, V domains shown)
VH: QITLKESGPTLVKPTQTLTLTCTFSGFSLSSGGVGVGWIRQPPGKALEWLALIYWDDDKRYRPSLKSRLTITRDTSTNQVVLTMTNMDPVDTATYFCARHQIATVFDHWGQGTLVTVSS
VL: QSALTQPASVSGSPGQSITISCTGTSSDVGGYNYVSWYQQHPGKAPKLMIYEVSNRPSGVSSRFSGSKSGNTASLTISGLQAEDEADYYCSSYTRSSPLVAFGGGTKVTVL
B3: antibody 2794 (antibody, V domains shown)
VH: QVQLVQSGAEVKKPGSSLKVSCKASGGTFNNFAISWVRQAPGQGPEWMGRINPILSAAKYAQKFQGRLTITADKSTTTAYMELSSLRSEDTAVYYCAPTGTGESWWFDPWGQGTLVTVSS
VL: QSVLTQPPSASGTPGQRVTISCSGSSSNIGTNYVYWYQQLPGTAPKVLIYGNNQRPSGVPDRFSGSKSGSSASLAISGLRSEDEADYYCAAWDDSLSGPVFGGGTKLTVL
B4: antibody 3995 (antibody, V domains shown)
VH: EVQLVQSGAEVKKPGSSVKVSCKASGGTFSMHTIRWVRQAPGQGLEWMGRIIPMLGIVNYAQKFQGRVTISADKSTSTAYMELSSLTSEDTAMYYCAKGSHDVFDIWGQGTMVTVSS
VL: not shown
B5: antibody 941 (antibody, V domains shown)
VH: QVQLVQSGAEVKKPGSSVKVSCKASGGTFSNSAINWVRQAPGQGLEWMGGIIPLFGAADYAQKFQARVTITADKSTTTSYMELSSLRSEDTAVYYCARDTLEHDDVWGNFRLSLPLSFWGQGTLVTVSS
VL: not shown
B6: antibody 2564 (antibody, V domains shown)
VH: QVQLVQSGAEVKKPGSSVRVSCKASGGTFISYTFNWVRQAPGQGLEWMGRIIPIFGIVNYAQKFQGRVTIAADKSTSTAYMELSSLRSEDTAMYYCATATVDYDSGEEQSSFDPWGQGTLVTVSS
VL: EIVLTQSPGTLSLSPGERATLSCRASQSVSSSYLAWYQQKAGQTPRLLIYAASSRATGVPDRFSGSGSGTDFTLTISRLEAEDFAVYYCQQSWTFGQGTKVEIK
B7: antibody 2075 (antibody, V domains shown)
VH: QVQLVQSGAEVKKPGSSVKVSCTASGGTFSIYAFSWVRQAPGQGLEWMGGIIPISGTAGYAQKFQGRVTITADESTSTAYMELSSLRSEDTAIYYCARKYRYCSGSRCYTYFDYWGQGTLVTVSS
VL: DIQMTQSPSSLSASVGDRVTITCRASQSISSFLNWYQQKPGKAPKLLIYAASSLQSGVPSRFSGSGSGTDFTLTISSLQPEDSATYYCQQSYSTITFGQGTRLEIK
B8: antibody 1888 (antibody, V domains shown)
VH: EVQLVESGGGLVKPGGSLRLSCAASGFTFSSYSMNWVRQAPGKGLEWVSYISSSSSYKYYADSVKGRFSVSRDNAKNSLYLQLNGLRVEDTAVYYCARDGYCPKGVCTYYGMDVWGQGTTVTVSA
VL: EIVMTQSPATLSVSPGERATLSCRASQSVRSRLAWFQQKPGQPPRLLIYDASIRATGIPDRFSGSGSGTEFTLIISGLQSEDFAVYYCQQYDNWPPAYTFGQGTKLEIK
B9: antibody 1969 (antibody, V domains shown)
VH: QVQLVQSGAEVKKPGASVKVSCKASGYSFTDYYIHWVRQAPGQGLEWMGIIKPSAGATVYAQKFRGRVSMTSDTSTGTVYMELSGLKSEDTAVYYCARDYNRSFDFWGQGTLVTVSS
VL: QSVLTQPPSVSAAPGQTVTISCAGSTSNIGKNYVSWYQHLPGTAPKLLIYDNIKRPSGIPDRFSGSTSGTSATLGITELQTGDEADYYCGTWDSSLSAYVFGTGTKVTVL
B10: antibody 1963 (antibody, V domains shown)
VH: QVQLVQSGAEVKKPGASVKVSCKASGYTFTSNYIHWLRQAPGQGLEWMGIIKPSGTSTISAQKFRGRVAMTRDTSTSTVYMELSSLRFEDTAIYYCARDAKRALETWGQGTMVTVSS
VL: QSVLTQPPSVSAAPGQKVTISCSGSSSNIGNNYVSWYQQLPGTAPKLLIYDNNKRPSGIPDRFSGSRSGTSATLGITGLQTGDEADYYCGTWDSSLSAWVFGGGTKLTVL
B11: antibody 1823 (antibody, V domains shown)
VH: B8 VH with A23V, T28S, S30G, S31L, S33T, S55T, F68V, K104N, V106I
VL: EIVMTQSPATLSVSPGERATLSCRASQSVSSNLAWYQQKPGQAPRLLIYGASTRATGIPARFSGSGSGTEFTLTITGLQSEDFAVYYCQQYDKWPPAYSFGQGTKVEIK
B12: antibody 1867 (antibody, V domains shown)
VH: B8 VH with T28S, S31T, S33T, K58R, K65R, L83M, K104N, A125S
VL: not shown
B13: antibody 1856 (antibody, V domains shown)
VH: B8 VH with Q3R, T28S, S31L, S33T, K58R, S78T, Q82E, L83M, V88A, K104R
VL: EIVMTQSPATLSVSPGERATLSCRASQTIGIRLAWYQQKPGQAPRLLIYDATIRATGIPARFSGSGSGTDFTLTISGLQSEDFAVYYCQRYNNWPPVYTFGQGTKLEMK
B14: antibody 2025 (antibody, V domains shown)
VH: QVQLVQSGAEVKKPGASVKVSCKVSGYTLIELSMHWVRQAPGKGLEWMGGFDPEDVETIYAQKFQGRVTMTEDTSTDTAYMELSSLRSEDTAVYYCATAYAVQWRGMIGYWGQGTLVTVSS
VL: QSALTQPASVSGSPGQSITISCTGTSSDVGSYNLVSWYQQHPGKAPKLMIYEVSKRPSGVSNRFSGSKSGNTASLTISGLQAEDEADYYCSSYAGSSTFSYVFGTGTKVTVL
B15: antibody 937 (antibody, V domains shown)
VH: EVQLVESGGGLVQPGRSLRLSCAASGFTFDDYAMHWVRQAPGKGLEWVSGISWNSGSIGYADSVKGRFTISRDNAKNSLYLQMNSLKPEDTALYYCAKSTTSCYNGSQCPTKRPKPLESWGQGTLVIVSA
VL: DIQMTQSPSTLSAFVGDRVTITCRASQSINNWLAWYQQKPGEVPKLLIYKASSLENGVPSRFSGSGFGTEFTLTISSLQPDDFAIYYCQQYYSHSHTFGQGTKLEIK

The target of the first experiment is SARS-CoV-2 spike protein, WA1/2020, borne on lentiviral pseudovirus (SARS-CoV-2, WA01/2020 strain, UniProt P0DTC2 14-1273). Description: cell-based or functional assay.
B1: the “Pseudo Neut, WA1/2020 IC50 (pM)” value worked out at 59 pM.
Take B2: the “Pseudo Neut, WA1/2020 IC50 (pM)” value was determined as 209 pM.
Turning to B3, the “Pseudo Neut, WA1/2020 IC50 (pM)” value amounted to 232 pM.
Consider B4, for which the “Pseudo Neut, WA1/2020 IC50 (pM)” value was 3120 pM.
On the same count and under the same terms, as for B5, the figure is 610 pM; as for B6, 160 pM; as for B7, 783 pM.
On the same count and under the same terms, as for B8, the figure is above 111 pM.

In the next experiment the target is SARS-CoV (2003) spike protein borne on lentiviral pseudovirus (SARS-CoV (2003), UniProt P59594 14-1255). Description: cell-based or functional assay.
With B9, the “Pseudo Neut, SARS-CoV 2003 IC50” value is 97 nM.
On the same count and under the same terms, as for B10, the figure is 69 nM; as for B11, 210 nM; as for B12, 135 nM.
For the molecule B8, the “Pseudo Neut, SARS-CoV 2003 IC50” value was above 111 nM.
Consider B13, for which the “Pseudo Neut, SARS-CoV 2003 IC50” value is above 111 nM.

The target in a further experiment is T1, S2 subunit of the SARS-CoV-2 spike protein, WA01/2020 strain (SARS-CoV-2, WA01/2020 strain, UniProt P0DTC2 686-1213). Nature of the experiment: ELISA, antibody at 0.1 ug/mL. Background: ELISA stands for enzyme-linked immunosorbent assay.
On to B1, for which the binding result was “no binding (tested: 0.1 ug/mL)”.
The same measure, in the same setting: next, B2: “no binding (tested: 0.1 ug/mL)”.
Consider B3, for which the binding result was “no binding (tested: 0.1 ug/mL)”.
The same measure, in the same setting: as for B4, the entry is “no binding (tested: 0.1 ug/mL)”; as for B5, “no binding (tested: 0.1 ug/mL)”.
As to B6, the binding result was “no binding (tested: 0.1 ug/mL)”.
Still for that read-out and setting: next, B7: “no binding (tested: 0.1 ug/mL)”.

For a further experiment, the target named is T2, SARS-CoV-2 nucleocapsid (N) protein (SARS-CoV-2, UniProt P0DTC9 1-419). Nature of the experiment: ELISA, antibody at 0.1 ug/mL.
Turning to B1, the binding result was “no binding (tested: 0.1 ug/mL)”.
The same measure, in the same setting: as for B2, the entry is “no binding (tested: 0.1 ug/mL)”.
The same measure, in the same setting: as for B3, the entry is “no binding (tested: 0.1 ug/mL)”.
Same read-out and setting: next, B4: “no binding (tested: 0.1 ug/mL)”; B5: “no binding (tested: 0.1 ug/mL)”.
Regarding B6, the binding result is “no binding (tested: 0.1 ug/mL)”.
The same measure, in the same setting: as for B7, the entry is “no binding (tested: 0.1 ug/mL)”.

The next experiment addresses T1, S2 subunit of the SARS-CoV-2 spike …. Nature of the experiment: ELISA, antibody at 0.1 ug/mL. The source holds these as a separate data set.
As for B14, the binding result is recorded as “no binding (tested: 0.1 ug/mL)”.
Still for that read-out and setting: as for B15, the entry is “no binding (tested: 0.1 ug/mL)”.

A further experiment concerns the target T2, SARS-CoV-2 nucleocapsid (N) protein. Description: ELISA, antibody at 0.1 ug/mL. The source holds these as a separate data set.
Consider B14, for which the binding result is “no binding (tested: 0.1 ug/mL)”.
As for B15, the binding result is given as “no binding (tested: 0.1 ug/mL)”.

Another experiment deals with T1, S2 subunit of the SARS-CoV-2 spike …. Description: ELISA on S2 (S2 Binding EC50).
As for B11, a half-maximal response (EC50) required 0.614 nM.

Another experiment addresses S1 subunit of the SARS-CoV-2 spike protein, WA01/2020 strain (SARS-CoV-2, WA01/2020 strain, UniProt P0DTC2 16-685). Nature of the experiment: ELISA screening, antibody concentration not given.
Regarding B9, the binding result was “no binding (tested: not printed)”.
B10: the binding result is listed as “no binding (tested: not printed)”.
The same measure, in the same setting: next, B12: “no binding (tested: not printed)”; B8: “no binding (tested: not printed)”; B13: “no binding (tested: not printed)”.

In another experiment the target is T2, SARS-CoV-2 nucleocapsid (N) protein. Description: ELISA screening, antibody concentration not given.
In the case of B9, the binding result was “no binding (tested: not printed)”.
Still for that read-out and setting: as for B10, the entry is “no binding (tested: not printed)”.
The same measure, in the same setting: as for B12, the entry is “no binding (tested: not printed)”; as for B8, “no binding (tested: not printed)”.
On the same count and under the same terms, as for B13, the entry is “no binding (tested: not printed)”.

The next experiment concerns the target T1, S2 subunit of the SARS-CoV-2 spike …. Description: dose-response ELISA; antigen taken from the column 'Structural data'.
In the case of B9, a half-maximal effect (EC50) was put at 0.035 nM.
For the molecule B10, the EC50 (usually the midpoint of the concentration-response curve) turned out to be 0.041 nM.
The molecule B11 gave an EC50 of 0.614 nM.
Molecule B12 returned a concentration giving a half-maximal response (EC50) of 1.09 nM.

(Values after US20230382979A1 (ADAPTIVE BIOTECHNOLOGIES, published 2023).)
